Data taken from article PMC4287840.

Experiments:
angiopoietin-2 (Ang2) [1] = target: T1, angiopoietin-2 (Ang2) (human, UniProt O15123 19-496); experiment: bead-based fluorescence assay
angiopoietin-2 (Ang2) [2] = target: T1, angiopoietin-2 (Ang2); experiment: ELONA sandwich
angiopoietin-2 (Ang2) [3] = target: T1, angiopoietin-2 (Ang2); experiment: bead-based fluorescence assay; remark: listed apart in the source
angiopoietin-2 (Ang2) [4] = target: T1, angiopoietin-2 (Ang2); experiment: bead-based fluorescence assay; remark: listed apart in the source

T1 sequence (O15123 19-496): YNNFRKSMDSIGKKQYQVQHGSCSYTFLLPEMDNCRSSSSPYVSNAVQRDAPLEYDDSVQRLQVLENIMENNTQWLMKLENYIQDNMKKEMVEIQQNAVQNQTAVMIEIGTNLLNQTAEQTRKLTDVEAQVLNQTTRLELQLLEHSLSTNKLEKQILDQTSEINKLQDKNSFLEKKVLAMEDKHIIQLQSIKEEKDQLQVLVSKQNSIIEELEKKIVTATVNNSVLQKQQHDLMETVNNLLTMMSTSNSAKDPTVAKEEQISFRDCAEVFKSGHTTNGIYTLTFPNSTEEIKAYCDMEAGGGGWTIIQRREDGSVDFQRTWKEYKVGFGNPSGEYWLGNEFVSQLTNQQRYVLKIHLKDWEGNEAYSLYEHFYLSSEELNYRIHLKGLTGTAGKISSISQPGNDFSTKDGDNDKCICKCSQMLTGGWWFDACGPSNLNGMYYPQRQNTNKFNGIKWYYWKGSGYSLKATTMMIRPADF

## TTTTTTTTTTTTTTTTTTTTTTTTT (ssDNA) [25T linker]
angiopoietin-2 (Ang2) [1]
  Kd: 0.21 ± 0.0494 µM

## TTTGGGGTGGTTGGGGGTTGTTGTTTTGGGGGTGGAGGGT (ssDNA) [ABA65]
angiopoietin-2 (Ang2) [2]
  binding result: binds

## GGTGCCATTGGGGACTGCTCGGGATTGCGGACTTGGCATC (ssDNA) [ABA92]
angiopoietin-2 (Ang2) [3]
  binding result: binds

## GGGTGCCATTGGGGACTGCTCGGGATTGCGGACTTGGCAT (ssDNA) [ABA109]
angiopoietin-2 (Ang2) [3]
  binding result: binds

## ACTTGTAGGGTTCGGCTGGTCAGGGTGTCCAAGTCTGTGG (ssDNA) [ABA1]
angiopoietin-2 (Ang2) [4]
  binding signal: ~210 fold higher Kd than ABA1-ABA65 (97 pM)
